Experimental data taken from patent US20260258115A1 (MAPP BIOPHARMACEUTICAL, published 2026).

B1: ADI-41600 (antibody, V domains shown)
VH: EVQLLESGGNMVQPGKSLRLSCAASGFTFSNYGMHWVRQAPGKGLEWVAVISKDGNNEHYADSVRARFTVSRDNSKNTLFLQMNSLRPEDTAVYYCAIGGLSGSYFGEYFQHWGRGTLVTVSS
VL: DIQMTQSPSSMSASLGDRVTITCRASQGISTWLAWYQQKPGEAPKLLIYAAFGLQSGVPSRFSGSGSGTDFTLTINNLQPEDFATYYCQQAISFPFTFGGGTKVEIK
notes: also called Ab 874; Antibody Number 874
B2: ADI-41602 (antibody, V domains shown)
VH: EVQLQESGPGLVKPSETLSLTCTVSGGSLSGYYWSWIRQPPGKGLEWIGYIYHSGSTNYNPSLESRVTISVDTSKNQFSLKVNAVTAADTAVYYCAKVERLLRFDPWGQGTLVTVSS
VL: QSVLIQPASVSGSPGQSITISCIGSSSDVGGYNYVSWYQHYPGKAPKLMIYDVSNRPSGVSNRFSGSKSGNTASLTISGLQAEDEADYYCSSYTSSTSYVFGTGTKVTVL
notes: also called Ab 876; Antibody Number 876
B3: ADI-41611 (antibody, V domains shown)
VH: EVQLVESGGGLVKPGGSLRLSCAASGFTFSDYSMNWVRQAPGKGLEWVSSTSSGSTYIYYADSVKGRFTISRDNGKNSLYLQMNSLRAEDTAVYYCARAFRLGYDALDIWGQGTMVTVSS
VL: DIRMTQSPSSLSASVGDRVTIICRASQSISNYLNWYQQKPGKAPKLLIYVASNLQSGVPSRFSGSGSGTDFTLTISSLQPEDFATYYCQQTYSPPPTFGGGTKLEIK
notes: also called Ab 885; Antibody Number 885
B4: ADI-41608 (antibody, V domains shown)
VH: QVQLVQSGDEVKKPGESLKISCKGSEHTFTNYWIAWVRQMPGKGLECMGVIWPDDSDTKYSPSFQGQVTISADKSINTAYLHLSSLRASDTAMYYCATSKFRTGFDFWGQGTLVTVSS
VL: NFMLTQPHSVSESPGKTVIISCTRSSGNIASNYVQWYQQRPGSSPTTVVYEDNQRPSGVPDRFSGSIDSSSNSASLTISGLKTEDEADYYCQSYDSSNPWVFGGGTKLTVL
B5: ADI-41607 (antibody, V domains shown)
VH: EVQLVESGPGLVKPSQTLSLTCTVSGGSINIGGYYWSWIRQHPEKGLEWIGYIYYSGTTYYNPSLESRVTISIDTSKNQFSLNLSSVTAADTAVYYCASVDQIGATRFDYWGQGTLVTVSS
VL: QPVLTQPRSVSGSPGQSVTLSCTGTSSDVGTYNYVSWYQHHPGKAPKLIIYDVNKRPSGVPDRFSGSKSGNTASLTISGLQAEDEADYYCCSYAGSYTLNYVFGTGTKLTVL
B6: ADI-41606 (antibody, V domains shown)
VH: EVQLLESGPGLVKPSETLSLTCTVSGGSVSSGGYYYTWIRQPPGKGLEWIGYAFYSGDTNYNPSLKSRVTISVDTSKNQFSLKLTSVTAADTAVYYCASTYTFGASGFDFWGQGTLVTVSS
VL: DIVMTQSPSFMSASVGDRVTITCRASQGISNWLLWYQQKPGKAPKLLIYAASSLQSGVPSRFSGSRSGTDFTLTISSLQPEDFAIYYCQQANSFPLTFGQGTRLEIK
notes: also called Ab 880; Antibody Number 880
B7: ADI-41660 (antibody, V domains shown)
VH: EVQLVQSGAEVKKPGSSVKVSCKASGGTFSRNAISWVRQAPGQGLEWMGGIIPIFGAANYPQKFQGRVTITADKSTSTAYMELSSLRSEDTALYYCARTMGEMTTTPVSIYYYGMDVWGQGTTVTVSS
VL: QSVLTQPPSVSAAPGQKVTISCSGSSSNIGINYVSWYQQLPGTAPKLLIYDNNKRPSGIPDRFSGSKSGTSATLGITGLQTGDEADYYCGTWDSSLSAGYVFGSGTKLTVL
B8: ADI-41604 (antibody, V domains shown)
VH: QVTLKESGAEVKKPGASVKVSCKASGYTFTGYYMHWVRQAPGQGLEWMGRINPNSGGTNYAQKFQGRVTMTRDTSISTAYMELSRLRSDDTAVYYCAREASRFGGFDYWGQGTLVTVSS
VL: DIVLTQSPSSLSASVGDRVTITCQASQDISNYLNWYQQKPGKAPKLLIYDASNLETGVPSRFSGSGSGTDFTFTISSLQPEDIATYYCQQYDNLLGYTFGQGTKVEIK
B9: ADI-41593 (antibody, V domains shown)
VH: QVQLVQSGVEVKKPGESLKISCKGSGYSFTNYWIAWVRQMPGKGLEWMGIIYPGDSDTRYSPSFQGQVTISADKSISTAYVQWSSLKASDTAIYYCARGDILTNSGPDAFDIWGQGTMVTVSS
VL: DIQMTQSPSSFSASTGDRVTITCRASQAISSYLAWFQQKPGKAPKLLIYAASTLQSGVPSRFSGSGSGTDFTLTISCLQSEDFATYYCQQYYSYPLTFGGGTKVEIK
notes: also called Ab 867; Antibody Number 867
B10: ADI-41588 (antibody, V domains shown)
VH: QVQLVESGPTLVKPTQTLTLTCTFSGFSLSTNGVGVAWIRQPPGKALEWLAIIYWDDDKRYSPSLKSRLTITKDTSKNQVVLTVTDMDPVDTATYYCAHTIGVPAATRFDYWGQGTLVTVSS
VL: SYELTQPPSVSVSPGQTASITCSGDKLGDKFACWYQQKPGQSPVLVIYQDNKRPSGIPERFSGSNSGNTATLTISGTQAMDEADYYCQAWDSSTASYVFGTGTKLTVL
B11: ADI-41592 (antibody, V domains shown)
VH: EVQLVESGSELKKPGASVKVSCKASGYTFRTYVMNWVRQAPGQGLEWMGWINTNTGNPTYAQGFTGRFVFSLDTSVSTAYLQISSLKAEDTAVYYCARESIDDYDSSGYGRTFDYWGQGTLVTVSS
VL: SYELTQPPSVSVSPGQTASIPCSGDKVGKTYVYWYQQTPGQSPGLVIYQDTKRPSGIPERFSGSSSGNTATLTISGTQTMDEADYYCQAWDTSTASYVFGTGTKLTVL
notes: also called Ab 866; Antibody Number 866
B12: ADI-41644 (antibody, V domains shown)
VH: QVQLQQWGPGLVKPSETLSLSCAVSGGSLRGHFWSWIRQPPGKGLEWIGEINHGGRTNFNPSLKSRLTISEDSSKNQFSLKLSSVTAADTAVYYCARRWGYDSSGYYFFDYWGQGTLVTVSS
VL: EIQMTQSPATLSVSPGERATLSCRASQTLGFNLAWYQQKPGQSPRLLIYGASTRATGIPARFSGSGAGTEFTLTISSLQSEDFAVYFCQQYSNYYTFGQGTKVEIK
notes: also called Ab 887; Antibody Number 887
B13: ADI-41587 (antibody, V domains shown)
VH: QVQLVQSGAGLLKPSETLSLTCAVYGGSFSGYSWSWIRQPPGKGLEWIGEINYSVSTSYNSSLKSRVSISVDTSKNQFSLKLTSVTAADTAVYYCARVGGAVADWGQGTLVTVSS
VL: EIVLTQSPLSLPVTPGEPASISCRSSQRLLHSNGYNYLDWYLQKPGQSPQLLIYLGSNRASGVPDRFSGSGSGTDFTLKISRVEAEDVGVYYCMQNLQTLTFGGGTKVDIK
B14: ADI-41662 (antibody, V domains shown)
VH: QVQLVQSGAEVKKAGESLKISCKGPRHSFTSYWIGWVRQMPGKGLEWMASIYPGDSDSRYSPSFEGQVTISADKSIDTAFLQWSSLKASDTAMYFCARYVGAVPGGNWYFDLWGRGTLVTVSS
VL: SYELIQLPSVSVSPGQTARITCSGDALPKKYAYWYQQKSGQAPVLVIYDDNKRPSGIPARFSGSSSGTMATLTISGAQVEDEGDYYCYSTDSTGDHRGVFGGGTKLTVL
B15: ADI-41583 (antibody, V domains shown)
VH: QVQLVQSGAEVKKPGSSVKVSCKASGGTFSRHTITWVRQAPGQGLEWMGRIAPIVGFANYAQKFQGRVTITADKSTSTAYMELRSLRSEDTAVYYCARRSEDYYGLDVWGQGTTVTVSS
VL: DIVMTQSPSSLSASVGDRVTITCQASQDISNYLNWYQQKPGKAPKLLIYEASNLETGVPSRFSGSGSGTDFTFTISSLQPEDIATYYCQQYDNLFGGGTKLEIK
B16: ADI-41586 (antibody, V domains shown)
VH: QVQLQQWGAGLLKPSETLSLTCAVYGGSFSGYSWSWIRQPPGKGLEWIGDIDHDGSTYYNSSLKSRVTMSIDTSKNQFSLKLSSVTAADTAVYYCARVGGNSGYWGQGTLVTVSS
VL: not shown
notes: also called Ab 860; Antibody Number 860
B17: ADI-41626 (antibody, V domains shown)
VH: EVQLQESGPGLVKPSGTLSLTCAVAGGFISSGNWWSWIRQPPGKGLEWIGEVYHSGRTSYNPSLKSRVTISVDNSKNQFSLKMSSVTAADTAVYYCARVESYSSSGYYIAYFDNWGQGNLVTVSS
VL: DIVLTQSPSSLSASVGDRVTITCRASQSISRYLSWYQQKPGKAPKLLIYAAFSLQTGVPSRFSGSGSGTDFTLTISSFQTEDSATYYCQQSYSAPVTFGGGTKVEIK
B18: ADI-41596 (antibody, V domains shown)
VH: QVQLQQWGAGLLKPSETLSLTCAVYGDSFSGYFWTWIRQPPGKGLEWIGEINLSGSTNYNPSLKSRVTILVDTSKNQFSLKLSSVTAADTAVYYCARGLHVSDDQDSSGYYFHPGSFDYWGQGTLVTVSS
VL: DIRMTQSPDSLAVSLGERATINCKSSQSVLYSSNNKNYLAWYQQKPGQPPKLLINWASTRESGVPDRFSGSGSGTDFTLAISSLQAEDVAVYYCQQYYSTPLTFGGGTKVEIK
notes: also called Ab 870; Antibody Number 870
B19: ADI-41603 (antibody, V domains shown)
VH: EVQLVESGGGLVKPGRSLRLSCTTSGFTFGDYAMSWFRQAPGKGLEWVGFIRSKPYGGATAYAASVRGRFTISNDDSKSIAYLQMESLKIEDTAVYYCARDYDDFFFYDYWGQGTLVTVSS
VL: DIRMTQSPATLSVSPGERATLSCRASENIYSNLAWYQQKPGQAPRLLIYGASTRATGLPARFSGSGSGTEFTLTISSLQSEDFAVYYCQQYNNWPAFGGGTKVEIK
notes: also called Ab 877; Antibody Number 877
B20: ADI-41605 (antibody, V domains shown)
VH: QVQLVESGPGLVKPSQTLSLTCSVSGGSISSDDHYWSWIRQHPGKGLEWIGYIYYSGYTNYNPSLKSRVTISVDTSKNQFSLRLSSVTAADTAVYYCARETDITIFGVVPVGYFDYWGQGTLVTVSS
VL: DIQVTQSPDSLAVSLGERATINCKSSQSILSSTNNKNFLAWYQQKPGQPPKLLLHWASTREFGVPDRFSGSGSGTEFTLTISSLQAEDVAVYYCQQYYTTPYTFGQGTKVEIK
notes: also called Ab 879; Antibody Number 879

These binders were tested against RSV F on RSV-A2 virus (Respiratory syncytial virus, RSV-A2, UniProt P03420 26-574) (assay: cell-based or functional assay).
In the case of B1, the “Neutralization IC50 (RSV subtype A)” value is reported as over 25 µg/mL.
For B2, the “Neutralization IC50 (RSV subtype A)” value was over 25 µg/mL.
In the case of B3, the “Neutralization IC50 (RSV subtype A)” value is reported as over 25 µg/mL.
With B4 the “Neutralization IC50 (RSV subtype A)” value was over 25 µg/mL.
B5 was tested, and the “Neutralization IC50 (RSV subtype A)” value was over 25 µg/mL.
B6 was tested, and the “Neutralization IC50 (RSV subtype A)” value was over 25 µg/mL.
In the case of B7, the “Neutralization IC50 (RSV subtype A)” value is reported as over 25 µg/mL.
B8 was tested, and the “Neutralization IC50 (RSV subtype A)” value was over 25 µg/mL.
In the case of B9, the “Neutralization IC50 (RSV subtype A)” value is reported as over 25 µg/mL.
With B10 the “Neutralization IC50 (RSV subtype A)” value was over 25 µg/mL.
For B11, the “Neutralization IC50 (RSV subtype A)” value was over 25 µg/mL.
In the case of B12, the “Neutralization IC50 (RSV subtype A)” value is reported as over 25 µg/mL.
For B13, the “Neutralization IC50 (RSV subtype A)” value was 0.664 µg/mL.
For B14, the “Neutralization IC50 (RSV subtype A)” value was over 25 µg/mL.
In the case of B15, the “Neutralization IC50 (RSV subtype A)” value is reported as over 25 µg/mL.
For B16, the “Neutralization IC50 (RSV subtype A)” value was 0.402 µg/mL.
With B17 the “Neutralization IC50 (RSV subtype A)” value was over 25 µg/mL.
With B18 the “Neutralization IC50 (RSV subtype A)” value was 0.0537 µg/mL.
With B19 the “Neutralization IC50 (RSV subtype A)” value was over 25 µg/mL.
With B20 the “Neutralization IC50 (RSV subtype A)” value was over 25 µg/mL.

These binders were tested against RSV prefusion F (preF), DS-Cav1 (Respiratory syncytial virus, UniProt P03420 26-513) (assay: BLI, IgG on anti-human IgG sensor, 100 nM antigen).
Work on B1 yielded a Kd of 4.93 nM.
B2 was tested, and the Kd was 2.85 nM.
With B3 the Kd was 3.09 nM.
B4 gave a Kd of 1.93 nM.
B5 was tested, and the Kd was 4.24 nM.
With B6 the Kd was 3.39 nM.
Binder B7 has a Kd of 2.94 nM.
Binder B8 has a Kd of 17.8 nM.
Work on B9 yielded a Kd of 1.83 nM.
B10 gave a Kd of 3.33 nM.
B11 gave a Kd of 3.74 nM.
With B12 the Kd was 3.03 nM.
B13 showed a Kd of 1.4 nM.
Binder B14 has a Kd of 5.24 nM.
B15 gave a Kd of 0.664 nM.
With B16 the Kd was 0.538 nM.
B17 gave a Kd of 2.6 nM.
In the case of B18, the Kd is reported as 0.305 nM.
B19 was tested, and the Kd was 3.49 nM.
B20 was tested, and the Kd was 3.18 nM.

The binders below were run against RSV postfusion F (postF), F ΔFP (Respiratory syncytial virus, UniProt P03420 26-513) (assay: BLI, IgG on anti-human IgG sensor, 100 nM antigen).
Work on B1 yielded a Kd of 0.755 nM.
For B2, the Kd was 0.455 nM.
Binder B3 has a Kd of 0.611 nM.
B4 was tested, and the Kd was 0.285 nM.
Work on B5 yielded a Kd of 0.709 nM.
In the case of B6, the Kd is reported as 1.03 nM.
Work on B7 yielded a Kd of 0.955 nM.
B8 was tested, and the Kd was 29.2 nM.
Work on B9 yielded a Kd of 0.53 nM.
For B10, the Kd was 0.505 nM.
Binder B11 has a Kd of 0.44 nM.
Binder B12 has a Kd of 1.1 nM.
With B13 the Kd was 2.09 nM.
B14 gave a Kd of 1.21 nM.
For B15, the Kd was 0.381 nM.
B16 was tested, and the Kd was 0.779 nM.
B17 showed a Kd of 0.891 nM.
Binder B18 has a Kd of 0.437 nM.
For B19, the Kd was 0.49 nM.
B20 gave a Kd of 0.55 nM.
